# Test results reported in the nanobody polyreactivity screen of Harvey et al. (2022).
# Experiment: yeast display, Sf9 membrane polyspecificity reagent, FACS + sequencing; frameworks hold sequencing errors
# Procedure, shortened: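 Synthetic nanobody libraries on Saccharomyces cerevisiae BJ5465 were galactose-induced for 36–48 hours, stained 1 hour at 4 °C with 10% biotinylated, detergent-solubilized Sf9 membrane reagent and enriched on streptavidin microbeads. FACS then separated cells into low and high (top ~1%) gates by anti-HA (expression) and streptavidin (reagent binding) fluorescence. Genes were colony-PCR amplified, MiSeq 2 × 250 sequenced and CDR-length filtered. A clone's polyreactivity label is that of its gate of origin.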
row,Sequence,polyreactivity (PSR sort gate)
1,QVQLVESGGGLVQAGGSLRLSCAASGSTSYLYAMGWYRQAPGKERELVATITTRSGSTYYADSVKGRFTISRDNAKNTVYLQINSLKPEDTAVYYCAARWISVLSEGAEHDYWGQGTQVTVSS,low polyreactivity
2,QVQLVESGGGLVQAGGSLRLSCAASGSTSYVYAMGWYRQAPGKERELVAANSGSGGRTYYADSVKGRFTISRDNAKNTVYLQMNSLKPEDTAVYYCNALTRPSYPFDYWGLGTQVTVSS,high polyreactivity
3,QVQLVESGGGLVQAGGSLRLSCAASGSTVENNVMGWYRQAPGQERELVATITWGDGSTSYADSVKGRFTISRDNAKNTVYLKMNSLKTEVTAVYYCDAVDRIGYGKNQDHDYWGQGTQVTVSS,low polyreactivity
4,QVQLVESGGGLVQAGGSLRLSCAASGSTVGAYAMGWYRQAPGKERELVAAISYSGGSTYYADSVKGRFTISRDNAKNSVYLQMNSLKPEDSAVYYCAAGTKYTSAVHFFYWGQGTQVTVSS,high polyreactivity
5,QVQLVESGGGLVQAGGSLRLSCAASGSTVINYAMGWYRHAPGKERELVATLTSDGRTYYADSVKGRCTISRDNAKNTVYLQMISLKPEDTAVYSCAKSYGGVTEYDYWGQGTQVTVSS,low polyreactivity
6,QVQLVESGGGLVQAGGSLRLSCAASGSTVKRNAMGWYRQAPGKERELVAAITQSGGSTYYADSVKGRFTISRHNAKNTVYLQMNSLKPEDTAVYYCAASDFRGRRYDYWGQGTQVTVSS,high polyreactivity
7,QVQLVESGGGLVQAGGSLRLSCAASGSTVRRYAMGWYRQAPGKERELVAAISWSGGSTYYADSVKGRFTISRDNAKNTGYLQMNSLKPEDTAVYYCAARGVTSYWQDYDYWGQGTQLTVSS,low polyreactivity
8,QVQLVESGGGLVQAGGSLRLSCAASGSTVSNYAMGWYRQAPGKERELVASISNGGSTNDADSVKGRFTISRANAKNTGYLQMNSLKPEDTAVYYCNAESKAKYDYWGQGTQVTLSS,low polyreactivity
9,QVQLVESGGGLVQAGGSLRLSCAASGSTVVIKAMGWYRQAPGKERELVARISSSGGRTYYADSVKGRFTISRDNAKNTVYLQMNSLKPEDTAVYYCAKRGYLFLRGSVRVGYNYWGQGTQVTVSS,low polyreactivity
10,QVQLVESGGGLVQAGGSLRLSCAASGSTVYHYAMGWNRQAPGKERELVAAISFSGGRTSYADSVKGRFTISRDNAKNTVDLQMNSLKPEDTAGYYCAAKYIRFARSRDYWGHGTQVTVSS,high polyreactivity
11,QVQLVESGGGLVQAGGSLRLSCAASGSTYALNAMGWYRQAPGKDRDLVDAISRRGGSTYYADSVKGRFTISRDNAKNTVYLQMNSLKPEDTAVYYCAARNQSQRTGYDFWGQGTQVTVSS,high polyreactivity
12,QVQLVESGGGLVQAGGSLRLSCAASGSTYAYYAMGWYRQATGKERELVAAISLSSGCTYYADSVKGRFTISRDKAKNTVYLQMNSLKPEDTAVYYCAADFASDSSRYEYWGQGTQVTVSS,low polyreactivity
13,QVQLVESGGGLVQAGGSLRLSCAASGSTYHKDAMAWYRQAPGKERELVAAISNGGRTYYADSVKGRFTISRDNAKNTVYLKRNSLKPEATAVYYCAAVPRRGWDIRRYDSWGQGTQVTVSS,high polyreactivity
14,QVQLVESGGGLVQAGGSLRLSCAASGSTYLINAMGWYRQAPGNERELVAAISDSGGSTHYADSVKGRFTISRDHAINTVYLHMKSLNPEDTAVYYCAATIPTTLILYGYWGQGTQVTVSS,low polyreactivity
15,QVQLVESGGGLVQAGGSLRLSCAASGSTYNINAMGWYRQAPGKERELVAAISWSGGSTYYADSVKGRFTISRDNAKNTVYLQMNSLKPEDTAVYYCNALWVWYRGSSVRWVGGYDYWGQGTQVTVSS,high polyreactivity
16,QVQLVESGGGLVQAGGSLRLSCAASGSTYPYAMGWYRQAPGKERELVAAIRWRGGSTKYADSVKGRFTISRDNAKNTVYLQMNSLKPEDTAVYYCARRWYYVLHGYWGQGTQVTVSS,high polyreactivity
17,QVQLVESGGGLVQAGGSLRLSCAASGSTYPYYAMGWYRQAPGKERELVAAITSGGSTNYADSVKGRFTISRDNAKNTVYLQMNSLKPEDTAVYYCNADSSGWFPFDYWGQGTQVTVSS,low polyreactivity
